Among the data in paper PMC10215317, “The Rhodanese PspE Converts Thiosulfate to Cellular Sulfane Sulfur in Escherichia coli” (Antioxidants, 2023) are Km, kcat and kcat/Km values, retold here.

Substrate in the data set: O=S(O)(O)=S
Nature of the data set: purified protein. Type of data set: biochemical, Escherichia coli. To be noted: 100 mM GSH fixed, 0.4 mM lead acetate, 100 mM HEPES pH 7.4, 37 °C.

B1: GlpE (Escherichia coli K-12) (protein)
chain: MDQFECINVADAHQKLQEKEAVLVDIRDPQSFAMGHAVQAFHLTNDTLGAFMRDNDFDTPVMVMCYHGNSSKGAAQYLLQQGYDVVYSIDGGFEAWQRQFPAEVAYGA
notes: intact gene (324 bp), C-terminal His6 tag kept, pET30a, E. coli BL21(DE3); Ni-NTA and Superdex 200
As for B1, the Km – broadly, the substrate concentration at which the rate is half of its maximum – came to 33.6 ± 7.0 mM; the kcat (usually the number of substrate molecules converted per active site and unit of time at saturation) came out at 0.02 s⁻¹; the kcat/Km (in general, the turnover number divided by the Michaelis constant) is 0.7 M⁻¹ s⁻¹.

B2: ΔNS-PspE (Escherichia coli K-12) (protein)
chain: AEHWIDVRVPEQYQQEHVQGAINIPLKEVKERIATAVPDKNDTVKVYCNAGRQSGQAKEILSEMGYTHVENAGGLKDIAMPKVKG
notes: Ni-NTA and Superdex 200
In the case of B2, the Km turned out to be 7.8 ± 1.6 mM, the kcat was found to be 0.04 s⁻¹ and the specificity constant (kcat/Km) was 4.8 M⁻¹ s⁻¹.
